Measured values taken from the supplement of paper PMC10724198.
± gives the standard deviation of the averaged measurements.

Columns and labels:
Saccharomyces cerevisiae [1] = assay: protein stability index of tFT-peptide fusion (C-terminal peptide) (PSI (0-1 scale)); higher = more stable (slower turnover)
Description: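 MPS profiling in S. cerevisiae of the tFT-X12 degron library: putative degron peptides plus stable controls, 12 aa, fused to the C-terminus of a sfGFP-mCherry timer. Cells are FACS-sorted into 8 mCherry/sfGFP bins and deep-sequenced. PSI runs from 0 (unstable) to 1 (stable). Backgrounds are wild type, das1Δ and doa10Δ at 30 °C, and wild type, das1Δ, cdc34-1 and cdc53-1 at 37 °C; 2-3 technical replicates each.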

Saccharomyces cerevisiae [2] = assay: as above; details: genetic background: wild type; temperature: 30 C
[3] = genetic background: cdc34-1, temperature: 37 C
[4] = genetic background: cdc53-1, temperature: 37 C
[5] = genetic background: das1 deletion, temperature: 30 C
[6] = genetic background: das1 deletion, temperature: 37 C
[7] = genetic background: doa10 deletion, temperature: 30 C
[8] = genetic background: wild type, temperature: 30 C
[9] = genetic background: wild type, temperature: 37 C
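Note: PSI is a weighted mean of sequencing reads over stability bins, variants kept only with over 10 reads, mCherry proximal and sfGFP distal, peptide attached via GGGS linker.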

Sequence | protein stability index (Saccharomyces cerevisiae [1]; [3]) | protein stability index (Saccharomyces cerevisiae [1]; [4]) | protein stability index (Saccharomyces cerevisiae [1]; [5]) | protein stability index (Saccharomyces cerevisiae [1]; [6]) | protein stability index (Saccharomyces cerevisiae [1]; [7]) | protein stability index (Saccharomyces cerevisiae [1]; [8]) | protein stability index (Saccharomyces cerevisiae [1]; [9]) | protein stability index (Saccharomyces cerevisiae [2])
LGVGVVPEFFVV | 0.659 ± 0.028 | 0.729 ± 0.014 | 0.592 ± 0.022 | 0.723 ± 0.023 | 0.332 ± 0.022 | 0.374 ± 0.022 | 0.527 ± 0.0086 | 0.464 ± 0.0065
LLFVVGTGRWVG | 0.665 ± 0.022 | 0.736 ± 0.011 | 0.629 ± 0.029 | 0.744 ± 0.024 | 0.159 ± 0.0042 | 0.183 ± 0.033 | 0.482 ± 0.035 | 0.302 ± 0.046
LLHSLILLEWVF | 0.148 ± 0.01 | 0.146 ± 0.02 | 0.19 ± 0.032 | 0.267 ± 0.011 | 0.145 ± 0.013 | 0.182 ± 0.02 | 0.238 ± 0.0042 | 0.272 ± 0.021
LLIFGLLAVPSP | 0.585 ± 0.0093 | 0.587 ± 0.023 | 0.448 ± 0.028 | 0.569 ± 0.0093 | 0.443 ± 0.031 | 0.457 ± 0.013 | 0.542 ± 0.042 | 0.4771 ± 0.0012
LLLAMLLWVSTM | 0.422 ± 0.0061 | 0.361 ± 0.11 | 0.305 ± 0.034 | 0.483 ± 0.02 | 0.2826 ± 0.0026 | 0.306 ± 0.021 | 0.455 ± 0.038 | 0.388 ± 0.0058
LLLFLLLPPFPF | 0.543 ± 0.034 | 0.59 ± 0.006 | 0.449 ± 0.025 | 0.604 ± 0.026 | 0.437 ± 0.028 | 0.445 ± 0.019 | 0.57 ± 0.0068 | 0.504 ± 0.025
LLLLLPLYLLPI | 0.24 ± 0.031 | 0.177 ± 0.037 | 0.31 ± 0.035 | 0.412 ± 0.021 | 0.553 ± 0.035 | 0.322 ± 0.017 | 0.368 ± 0.0062 | 0.372 ± 0.048
LLLSLYFCFIFF | 0.207 ± 0.025 | 0.152 ± 0.004 | 0.245 ± 0.035 | 0.332 ± 0.018 | 0.337 ± 0.0086 | 0.226 ± 0.022 | 0.309 ± 0.033 | 0.329 ± 0.074
LLLSSILLILSS | 0.357 ± 0.033 | 0.409 ± 0.0057 | 0.29 ± 0.018 | 0.465 ± 0.023 | 0.2369 ± 0.00081 | 0.272 ± 0.024 | 0.459 ± 0.063 | 0.34 ± 0.019
LLPLLLFFSLLR | 0.223 ± 0.019 | 0.158 ± 0.02 | 0.34 ± 0.034 | 0.4062 ± 0.0013 | 0.601 ± 0.05 | 0.318 ± 0.034 | 0.373 ± 0.04 | 0.466 ± 0.03
LLPLSLSLLLSV | 0.52 ± 0.015 | 0.541 ± 0.0062 | 0.432 ± 0.023 | 0.5638 ± 0.0033 | 0.414 ± 0.0064 | 0.429 ± 0.021 | 0.53568 ± 0.00041 | 0.453 ± 0.023
LLSAVAHCYFIA | 0.595 ± 0.034 | 0.713 ± 0.0051 | 0.611 ± 0.01 | 0.738 ± 0.01 | 0.178 ± 0.013 | 0.191 ± 0.021 | 0.29 ± 0.02 | 0.297 ± 0.019
LLSLTLALPLAA | 0.392 ± 0.0064 | 0.434 ± 0.014 | 0.337 ± 0.034 | 0.461 ± 0.0074 | 0.296 ± 0.0033 | 0.349 ± 0.022 | 0.4518 ± 0.0011 | 0.455 ± 0.047
LLVFSSPPPAKF | 0.91 ± 0.036 | 0.901 ± 0.018 | 0.799 ± 0.055 | 0.833 ± 0.025 | 0.808 ± 0.023 | 0.769 ± 0.026 | 0.869 ± 0.024 | 0.81 ± 0.023
LLVSCPLVLRFR | 0.426 ± 0.048 | 0.41 ± 0.02 | 0.437 ± 0.01 | 0.576 ± 0.058 | 0.6177 ± 0.0033 | 0.431 ± 0.028 | 0.511 ± 0.012 | 0.53 ± 0.048
LLYSLVALGVCV | 0.329 ± 0.0041 | 0.314 ± 0.011 | 0.28 ± 0.032 | 0.403 ± 0.0012 | 0.24309 ± 0.00016 | 0.277 ± 0.019 | 0.3667 ± 0.0013 | 0.3805 ± 0.0005
LMFCPPLLRVAL | 0.44 ± 0.023 | 0.4421 ± 0.0031 | 0.372 ± 0.03 | 0.526 ± 0.015 | 0.399 ± 0.026 | 0.392 ± 0.018 | 0.473 ± 0.0086 | 0.485 ± 0.013
LMFSRSLFIVKC | 0.435 ± 0.035 | 0.438 ± 0.051 | 0.36 ± 0.038 | 0.514 ± 0.018 | 0.168 ± 0.0054 | 0.178 ± 0.025 | 0.343 ± 0.037 | 0.295 ± 0.043
LMPYIIFLMSFQ | 0.458 ± 0.026 | 0.496 ± 0.017 | 0.351 ± 0.027 | 0.5408 ± 0.0045 | 0.335 ± 0.028 | 0.347 ± 0.0081 | 0.498 ± 0.042 | 0.418 ± 0.014
